B1: full-length mCherry-lacR-MDC1 [human] / FN-TNKS1 (flag tag and NLS signal, pCDNA 3.1) [human] (parent complex)
chain 1: MEDTQAIDWDVEEEEETEQSSESLRCNVEPVGRLHIFSGAHGPEKDFPLHLGKNVVGRMPDCSVALPFPSISKQHAEIEILAWDKAPILRDCGSLNGTQILRPPKVLSPGVSHRLRDQELILFADLLCQYHRLDVSLPFVSRGPLTVEETPRVQGETQPQRLLLAEDSEEEVDFLSERRMVKKSRTTSSSVIVPESDEEGHSPVLGGLGPPFAFNLNSDTDVEEGQQPATEEASSAARRGATVEAKQSEAEVVTEIQLEKDQPLVKERDNDTKVKRGAGNGVVPAGVILERSQPPGEDSDTDVDDDSRPPGRPAEVHLERAQPFGFIDSDTDAEEERIPATPVVIPMKKRKIFHGVGTRGPGAPGLAHLQESQAGSDTDVEEGKAPQAVPLEKSQASMVINSDTDDEEEVSAALTLAHLKESQPAIWNRDAEEDMPQRVVLLQRSQTTTERDSDTDVEEEELPVENREAVLKDHTKIRALVRAHSEKDQPPFGDSDDSVEADKSSPGIHLERSQASTTVDINTQVEKEVPPGSAIIHIKKHQVSVEGTNQTDVKAVGGPAKLLVVSLEEAWPLHGDCETDAEEGTSLTASVVADVRKSQLPAEGDAGAEWAAAVLKQERAHEVGAQGGPPVAQVEQDLPISRENLTDLVVDTDTLGESTQPQREGAQVPTGREREQHVGGTKDSEDNYGDSEDLDLQATQCFLENQGLEAVQSMEDEPTQAFMLTPPQELGPSHCSFQTTGTLDEPWEVLATQPFCLRESEDSETQPFDTHLEAYGPCLSPPRAIPGDQHPESPVHTEPMGIQGRGRQTVDKVMGIPKETAERVGPERGPLERETEKLLPERQTDVTGEEELTKGKQDREQKQLLARDTQRQESDKNGESASPERDRESLKVEIETSEEIQEKQVQKQTLPSKAFEREVERPVANRECDPAELEEKVPKVILERDTQRGEPEGGSQDQKGQASSPTPEPGVGAGDLPGPTSAPVPSGSQSGGRGSPVSPRRHQKGLLNCKMPPAEKASRIRAAEKVSRGDQESPDACLPPTVPEAPAPPQKPLNSQSQKHLAPPPLLSPLLPSIKPTVRKTRQDGSQEAPEAPLSSELEPFHPKPKIRTRKSSRMTPFPATSAAPEPHPSTSTAQPVTPKPTSQATRSRTNRSSVKTPEPVVPTAPELQPSTSTDQPVTSEPTSQVTRGRKSRSSVKTPETVVPTALELQPSTSTDRPVTSEPTSQATRGRKNRSSVKTPEPVVPTAPELQPSTSTDQPVTSEPTYQATRGRKNRSSVKTPEPVVPTAPELRPSTSTDRPVTPKPTSRTTRSRTNMSSVKTPETVVPTAPELQISTSTDQPVTPKPTSRTTRSRTNMSSVKNPESTVPIAPELPPSTSTEQPVTPEPTSRATRGRKNRSSGKTPETLVPTAPKLEPSTSTDQPVTPEPTSQATRGRTNRSSVKTPETVVPTAPELQPSTSTDQPVTPEPTSQATRGRTDRSSVKTPETVVPTAPELQASASTDQPVTSEPTSRTTRGRKNRSSVKTPETVVPAAPELQPSTSTDQPVTPEPTSRATRGRTNRSSVKTPESIVPIAPELQPSTSRNQLVTPEPTSRATRCRTNRSSVKTPEPVVPTAPEPHPTTSTDQPVTPKLTSRATRRKTNRSSVKTPKPVEPAASDLEPFTPTDQSVTPEAIAQGGQSKTLRSSTVRAMPVPTTPEFQSPVTTDQPISPEPITQPSCIKRQRAAGNPGSLAAPIDHKPCSAPLEPKSQASRNQRWGAVRAAESLTAIPEPASPQLLETPIHASQIQKVEPAGRSRFTPELQPKASQSRKRSLATMDSPPHQKQPQRGEVSQKTVIIKEEEEDTAEKPGKEEDVVTPKPGKRKRDQAEEEPNRIPSRSLRRTKLNQESTAPKVLFTGVVDARGERAVLALGGSLAGSAAEASHLVTDRIRRTVKFLCALGRGIPILSLDWLHQSRKAGFFLPPDEYVVTDPEQEKNFGFSLQDALSRARERRLLEGYEIYVTPGVQPPPPQMGEIISCCGGTYLPSMPRSYKPQRVVITCPQDFPHCSIPLRVGLPLLSPEFLLTGVLKQEAKPEAFVLSPLEMSST
chain 2: MAASRRSQHHHHHHQQQLQPAPGASAPPPPPPPPLSPGLAPGTTPASPTASGLAPFASPRHGLALPEGDGSRDPPDRPRSPDPVDGTSCCSTTSTICTVAAAPVVPAVSTSSAAGVAPNPAGSGSNNSPSSSSSPTSSSSSSPSSPGSSLAESPEAAGVSSTAPLGPGAAGPGTGVPAVSGALRELLEACRNGDVSRVKRLVDAANVNAKDMAGRKSSPLHFAAGFGRKDVVEHLLQMGANVHARDDGGLIPLHNACSFGHAEVVSLLLCQGADPNARDNWNYTPLHEAAIKGKIDVCIVLLQHGADPNIRNTDGKSALDLADPSAKAVLTGEYKKDELLEAARSGNEEKLMALLTPLNVNCHASDGRKSTPLHLAAGYNRVRIVQLLLQHGADVHAKDKGGLVPLHNACSYGHYEVTELLLKHGACVNAMDLWQFTPLHEAASKNRVEVCSLLLSHGADPTLVNCHGKSAVDMAPTPELRERLTYEFKGHSLLQAAREADLAKVKKTLALEIINFKQPQSHETALHCAVASLHPKRKQVTELLLRKGANVNEKNKDFMTPLHVAAERAHNDVMEVLHKHGAKMNALDTLGQTALHRAALAGHLQTCRLLLSYGSDPSIISLQGFTAAQMGNEAVQQILSESTPIRTSDVDYRLLEASKAGDLETVKQLCSSQNVNCRDLEGRHSTPLHFAAGYNRVSVVEYLLHHGADVHAKDKGGLVPLHNACSYGHYEVAELLVRHGASVNVADLWKFTPLHEAAAKGKYEICKLLLKHGADPTKKNRDGNTPLDLVKEGDTDIQDLLRGDAALLDAAKKGCLARVQKLCTPENINCRDTQGRNSTPLHLAAGYNNLEVAEYLLEHGADVNAQDKGGLIPLHNAASYGHVDIAALLIKYNTCVNATDKWAFTPLHEAAQKGRTQLCALLLAHGADPTMKNQEGQTPLDLATADDIRALLIDAMPPEALPTCFKPQATVVSASLISPASTPSCLSAASSIDNLTGPLAELAVGGASNAGDGAAGTERKEGEVAGLDMNISQFLKSLGLEHLRDIFETEQITLDVLADMGHEELKEIGINAYGHRHKLIKGVERLLGGQQGTNPYLTFHCVNQGTILLDLAPEDKEYQSVEEEMQSTIREHRDGGNAGGIFNRYNVIRIQKVVNKKLRERFCHRQKEVSEENHNHHNERMLFHGSPFINAIIHKGFDERHAYIGGMFGAGIYFAENSSKSNQYVYGIGGGTGCPTHKDRSCYICHRQMLFCRVTLGKSFLQFSTMKMAHAPPGHHSVIGRPSVNGLAYAEYVIYRGEQAYPEYLITYQIMKPEAPSQTATAAEQKT

Variants of: B1
Test: lacO-array tethering colocalization (immunofluorescence) in U2OS17 cells; N = 100 cells in each experiment, three independent experiments; read off a plot

Row | screen value | Variant
1 | ~27% | chain 1 L1996A, chain 1 E1997A, chain 1 G1998A
2 | ~30% | chain 1 P951A, chain 1 E952A, chain 1 G953A
3 | ~3.7% | chain 1 P951A, chain 1 E952A, chain 1 G953A, chain 1 L1996A, chain 1 E1997A, chain 1 G1998A

— article PMC4741384 (2016)
